Reference: publication PMC11236828 (Bioresources and Bioprocessing, 2024)

Experiments:
Formate oxidase (FOx) = target: T1, Formate oxidase (FOx) (Aspergillus oryzae, UniProt Q2UD26); test: UV-visible absorption spectra of purified enzyme; assay type: binding; details: 4 °C
T1 construct: gene AO090012000349; synthetic gene in pET28a(+) (NdeI-HindIII), expressed in E. coli BL21(DE3), purified on Ni-Sepharose; His tag cleavage not mentioned; contains FAD / 8-formyl FAD
T1 sequence (Q2UD26 2-578): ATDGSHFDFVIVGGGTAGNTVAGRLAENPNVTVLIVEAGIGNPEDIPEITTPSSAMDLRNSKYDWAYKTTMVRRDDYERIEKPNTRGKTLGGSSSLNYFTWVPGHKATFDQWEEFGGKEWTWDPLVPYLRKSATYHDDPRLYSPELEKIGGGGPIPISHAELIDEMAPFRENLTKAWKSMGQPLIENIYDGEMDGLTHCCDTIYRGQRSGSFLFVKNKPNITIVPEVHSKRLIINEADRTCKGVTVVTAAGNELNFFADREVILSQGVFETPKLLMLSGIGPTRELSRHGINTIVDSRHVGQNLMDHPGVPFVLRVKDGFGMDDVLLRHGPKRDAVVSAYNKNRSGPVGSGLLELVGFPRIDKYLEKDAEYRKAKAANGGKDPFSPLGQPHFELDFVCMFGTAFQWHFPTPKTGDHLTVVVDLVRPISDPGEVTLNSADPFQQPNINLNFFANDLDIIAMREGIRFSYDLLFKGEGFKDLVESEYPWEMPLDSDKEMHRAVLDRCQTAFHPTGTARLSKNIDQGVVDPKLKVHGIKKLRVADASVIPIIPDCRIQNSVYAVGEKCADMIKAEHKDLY

purified protein = substrate: O=CO; test: purified protein; details: 50 mM sodium acetate pH 5.0, 25 °C, air oxygen, enzyme 14 h after purification (8-formyl FAD formed)

## Cc1cc2nc3c(=O)[nH]c(=O)nc-3n(C[C@H](O)[C@H](O)[C@H](O)COP(=O)(O)OP(=O)(O)OC[C@H]3O[C@@H](n4cnc5c(N)ncnc54)[C@H](O)[C@@H]3O)c2cc1C [FAD]
Formate oxidase (FOx); copurified cofactor, autocatalytically converted to 8-formyl FAD
  UV-visible absorption spectra of purified enzyme: conversion of FAD to 8-formyl FAD within the active site of FOx

## Cc1cc2nc3c(=O)[nH]c(=O)nc-3n(C[C@H](O)[C@H](O)[C@H](O)COP(=O)(O)OP(=O)(O)OC[C@H]3O[C@@H](n4cnc5c(N)ncnc54)[C@H](O)[C@@H]3O)c2cc1C=O [8-formyl FAD]
Formate oxidase (FOx); formed in situ from bound FAD, 14 h
  UV-visible absorption spectra of purified enzyme: conversion of FAD to 8-formyl FAD within the active site of FOx

B1: Formate oxidase (FOx) (Aspergillus oryzae RIB40) (protein)
chain: T1 sequence (Q2UD26 2-578)
Purified protein
  Km: 96 ± 3.1 mM
  kcat: 102 s⁻¹
  kcat/Km: 1100 M⁻¹ s⁻¹
